How the values were obtained:
[1] = target: T1, AfGcHK (Anaeromyxobacter sp. Fw109-5, UniProt A7HD43); assay: autophosphorylation, Phos-tag SDS-PAGE; format: biochemical; conditions: Fe(III) and Fe(II)-O2 heme forms of Fe-AfGcHK; 1 mM ATP, 5 mM MgCl2, pH 8.0, 25 °C
T1 construct: gene gchK; full-length, C-terminal His6 tag kept, pET-21c in E. coli BL21(DE3); reconstituted with heme or cobalt protoporphyrin IX
T1 sequence (A7HD43 1-382): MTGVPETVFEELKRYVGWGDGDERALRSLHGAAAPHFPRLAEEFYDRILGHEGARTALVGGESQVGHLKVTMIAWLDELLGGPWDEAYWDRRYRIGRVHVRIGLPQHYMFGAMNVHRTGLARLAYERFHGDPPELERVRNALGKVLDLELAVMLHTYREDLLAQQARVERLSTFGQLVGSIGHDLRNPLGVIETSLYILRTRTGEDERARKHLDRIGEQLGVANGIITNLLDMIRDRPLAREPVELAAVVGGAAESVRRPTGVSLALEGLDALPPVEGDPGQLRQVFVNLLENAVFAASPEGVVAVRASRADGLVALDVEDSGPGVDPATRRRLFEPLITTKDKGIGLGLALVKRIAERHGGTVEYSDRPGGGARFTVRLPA

[2] = target: the molecule itself; assay: SEC; analytical gel filtration, Superdex 200 Increase 10/300 GL, 50 mM Tris-HCl pH 8.0, 100 mM NaCl; molecular weight estimated from elution volumes of standard proteins

Molecule | autophosphorylation, Phos-tag SDS-PAGE [1] | stoichiometry N [2]
Nc1ncnc2c1ncn2[C@@H]1O[C@H](COP(=O)(O)OP(=O)(O)OP(=O)(O)O)[C@@H](O)[C@H]1O [ATP] | the Fe(III), and Fe(II)-O2 complexes of Fe-AfGcHK displayed autophosphorylation activity | –
Fe-AfGcHK, globin-coupled histidine kinase from Anaeromyxobacter sp. Fw109-5 reconstituted with heme (iron protoporphyrin IX) (enzyme, UniProt A7HD43 1-382, looked up, AfGcHK, globin-coupled oxygen sensor histidine kinase from Anaeromyxobacter sp; Fw109-5; full-length protein with N-terminal globin sensor domain and C-terminal histidine kinase domain; predicted mass 43.0 kDa with the C-terminal His6 tag; Holds one equivalent of heme (iron protoporphyrin IX) per subunit; As purified, partially pre-autophosphorylated (about 10%, at His183); source: E. coli …) MTGVPETVFEELKRYVGWGDGDERALRSLHGAAAPHFPRLAEEFYDRILGHEGARTALVGGESQVGHLKVTMIAWLDELLGGPWDEAYWDRRYRIGRVHVRIGLPQHYMFGAMNVHRTGLARLAYERFHGDPPELERVRNALGKVLDLELAVMLHTYREDLLAQQARVERLSTFGQLVGSIGHDLRNPLGVIETSLYILRTRTGEDERARKHLDRIGEQLGVANGIITNLLDMIRDRPLAREPVELAAVVGGAAESVRRPTGVSLALEGLDALPPVEGDPGQLRQVFVNLLENAVFAASPEGVVAVRASRADGLVALDVEDSGPGVDPATRRRLFEPLITTKDKGIGLGLALVKRIAERHGGTVEYSDRPGGGARFTVRLPA | – | 2
Co-AfGcHK, cobalt-substituted AfGcHK (globin-coupled histidine kinase from Anaeromyxobacter sp. Fw109-5 reconstituted with cobalt protoporphyrin IX) (enzyme, UniProt A7HD43 1-382, looked up, AfGcHK, globin-coupled oxygen sensor histidine kinase from Anaeromyxobacter sp; Fw109-5; full-length protein with N-terminal globin sensor domain and C-terminal histidine kinase domain; predicted mass 43.0 kDa with the C-terminal His6 tag; Same polypeptide and construct as m1; source: E. coli BL21(DE3), pET-21c; cobalt(III) protoporphyrin IX chloride added to the crude extract; purified (HisTrap …)) MTGVPETVFEELKRYVGWGDGDERALRSLHGAAAPHFPRLAEEFYDRILGHEGARTALVGGESQVGHLKVTMIAWLDELLGGPWDEAYWDRRYRIGRVHVRIGLPQHYMFGAMNVHRTGLARLAYERFHGDPPELERVRNALGKVLDLELAVMLHTYREDLLAQQARVERLSTFGQLVGSIGHDLRNPLGVIETSLYILRTRTGEDERARKHLDRIGEQLGVANGIITNLLDMIRDRPLAREPVELAAVVGGAAESVRRPTGVSLALEGLDALPPVEGDPGQLRQVFVNLLENAVFAASPEGVVAVRASRADGLVALDVEDSGPGVDPATRRRLFEPLITTKDKGIGLGLALVKRIAERHGGTVEYSDRPGGGARFTVRLPA | – | 2

Source: paper PMC8697598 (ACS Omega, 2021)
